T1: HEK293-MUC16 (13810-14507) (human, UniProt Q8WXI7 13810-14507)
T1 construct: range 13810-14507; also called MUC16 overexpressed HEK293 cells
T1 sequence: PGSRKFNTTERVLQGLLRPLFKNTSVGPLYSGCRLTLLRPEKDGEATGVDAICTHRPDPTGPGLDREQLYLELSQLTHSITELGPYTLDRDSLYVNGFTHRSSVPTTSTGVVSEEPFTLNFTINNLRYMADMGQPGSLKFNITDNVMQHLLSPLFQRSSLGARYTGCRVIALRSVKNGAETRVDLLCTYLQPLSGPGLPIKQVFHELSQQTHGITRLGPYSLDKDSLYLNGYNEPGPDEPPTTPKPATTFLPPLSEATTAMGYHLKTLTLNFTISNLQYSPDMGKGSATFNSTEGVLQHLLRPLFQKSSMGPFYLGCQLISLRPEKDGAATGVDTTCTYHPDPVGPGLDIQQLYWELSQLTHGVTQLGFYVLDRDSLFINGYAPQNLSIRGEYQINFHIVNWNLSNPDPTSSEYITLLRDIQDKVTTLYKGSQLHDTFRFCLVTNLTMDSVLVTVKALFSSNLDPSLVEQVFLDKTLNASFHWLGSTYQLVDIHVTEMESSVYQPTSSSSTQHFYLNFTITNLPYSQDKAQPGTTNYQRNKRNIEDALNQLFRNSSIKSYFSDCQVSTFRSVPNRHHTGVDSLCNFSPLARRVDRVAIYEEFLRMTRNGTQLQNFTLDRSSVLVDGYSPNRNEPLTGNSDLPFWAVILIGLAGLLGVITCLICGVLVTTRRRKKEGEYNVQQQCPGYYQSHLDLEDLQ


Legend:
[1] = target: T2, monomeric human 4-1BB (human, UniProt Q07011 24-186, limits assumed); assay: SPR, measured in parallel
T2 construct: SPR analyte/ligand

[2] = target: T2, monomeric human 4-1BB; assay: SPR, monomeric human 4-1BB
[3] = target: T3, 4-1BB on cells (human, UniProt Q07011 24-255); assay: flow cytometry (GMFI) on HEK293T-4-1BB cells
T3 construct: Species is stated as human for section 2.2 as a whole, not for each cell line; also called HEK293 cells expressing 4-1BB; 4-1BB overexpressed HEK293 cell

[4] = target: T4, soluble recombinant human 4-1BB (human, UniProt Q07011 24-186); assay: ELISA (OD450) on soluble recombinant human 4-1BB
T4 construct: ELISA antigen

[5] = target: T5, human MUC16 on cells (human, UniProt Q8WXI7 1-14507); assay: flow cytometry (MFI GeoMean) on OVCAR3 cells, nM is the unit of the x axis Log10[Ab] (nM)
T5 construct: whole, on cells; also called huMUC16; MUC16 on OVCAR3 and SNU216 cells

[6] = target: T5, human MUC16 on cells; assay: flow cytometry (MFI GeoMean) on SNU216 cells, nM is the unit of the x axis Log10[Ab] (nM)
[7] = target: T1, HEK293-MUC16 (13810-14507); assay: flow cytometry (MFI GeoMean) on HEK293-MUC16 (13810-14507) cells; the curve lies on the Iso curve up to about 4 nM and reaches only about 8000 at 100 nM against 40000-75000 for the others; paragraph 397 says h3A5 does not bind these cells; no unit in the table, nM from the x axis

T2 sequence (Q07011 24-186 limits assumed): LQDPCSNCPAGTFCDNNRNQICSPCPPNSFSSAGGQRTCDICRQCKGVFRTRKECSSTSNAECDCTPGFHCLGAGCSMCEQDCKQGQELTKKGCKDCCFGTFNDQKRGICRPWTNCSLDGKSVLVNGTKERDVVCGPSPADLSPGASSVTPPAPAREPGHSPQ
T4 sequence (Q07011 24-186 limits assumed): as above
T3 sequence (Q07011 24-255): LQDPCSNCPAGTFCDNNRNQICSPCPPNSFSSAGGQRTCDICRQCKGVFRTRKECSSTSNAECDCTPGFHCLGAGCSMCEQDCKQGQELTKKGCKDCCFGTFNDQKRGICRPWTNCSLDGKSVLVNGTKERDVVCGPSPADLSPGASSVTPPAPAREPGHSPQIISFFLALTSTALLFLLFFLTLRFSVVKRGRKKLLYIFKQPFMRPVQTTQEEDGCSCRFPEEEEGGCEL

Kd [1] [nM]	kon [2] [M⁻¹ s⁻¹]	EC50 [3] [nM]	EC50 [4] [nM]	EC50 [5] [nM]	EC50 [6] [nM]	EC50 [7] [nM]	Binder
4.39	383000	0.131	0.071	–	–	–	parental anti-4-1BB sdAb antibody conjugated with IgG1 Fc fragment (Fc fusion, also called 4-1BB sdAb-Fc; not shown: IgG1 Fc fragment) QVQLQESGGGLVQPGGSLRLSCAASGYTYSSNCMGWFRQAPGKGLEGVAVICTGGGSPSYADSVKGRFTISRDNAKNTLYLQMNSLRAEDTAVYYCAADLLRAGTPLSSYEFNYWGQGTLVTVSS
–	–	–	–	0.799	0.571	63.4	3A5 (antibody, human IgG1, kappa, V domains shown, Benchmark anti-MUC16 antibody; printed both as h3A5 and 3A5; also called h3A5; benchmarker 3A5) VH: EVQLVESGGGLVQPGGSLRLSCAASGYSITNDYAWNWVRQAPGKGLEWVGYISYSGYTTYNPSIKSRFTISRDTSKNTLYLQMNSLRAEDTAVYYCARWTSGLDYWGQGTLVTVSS VL: DIQMTQSPSSLSASVGDRVTITCKASDLIHNWLAWYQQKPGKAPKLLIYGATSLETGVPSRFSGSGSGTDFTLTISSLQPEDFATYYCQQYWTTPFTFGQGTKVEIKR

Source: US20260078196A1 (TJ BIOPHARMA SHANGHAI, published 2026)
